B1: c-Myc_(1–88) (domain or fragment, human, UniProt P01106-1 1-88, looked up)
chain: MPLNVSFTNRNYDLDYDSVQPYFYCDEEENFYQQQQQSELQPPAPSEDIWKKFELLPTPPLSPSRRSGLCSPSYVAVTPFSLRGDNDG

Columns and labels:
[1] = target: T1, full-length Pin1 (1–163) (human, UniProt Q13526 1-163); assay: SPR
[2] = target: B1; assay: SPR
[3] = target: T1, full-length Pin1 (1–163); assay: ITC

T1 sequence (Q13526 whole entry): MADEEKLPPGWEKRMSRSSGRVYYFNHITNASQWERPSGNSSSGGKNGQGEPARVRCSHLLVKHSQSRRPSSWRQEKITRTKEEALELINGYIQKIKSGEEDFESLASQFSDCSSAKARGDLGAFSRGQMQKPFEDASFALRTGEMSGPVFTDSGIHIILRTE

| Binder | fold weaker affinity than intact Pin1 [2] | further results |
| --- | --- | --- |
| B1 |  | Kd [1]: 4 µM |
| KLPPGWEKRMSRSSGRVYYFNHITNASQWERPSG (domain or fragment, human, UniProt Q13526 6-39, looked up) [Pin1WW (6–39)] | > 10 fold |  |
| Pin1_(PPIase) (50–163) (domain or fragment, human, UniProt Q13526 50-163, looked up) GEPARVRCSHLLVKHSQSRRPSSWRQEKITRTKEEALELINGYIQKIKSGEEDFESLASQFSDCSSAKARGDLGAFSRGQMQKPFEDASFALRTGEMSGPVFTDSGIHIILRTE | > 10 fold |  |
| pSer62-c-Myc_(1–88) (domain or fragment, human, UniProt P01106-1 1-88, looked up, phosphoserine at 62) MPLNVSFTNRNYDLDYDSVQPYFYCDEEENFYQQQQQSELQPPAPSEDIWKKFELLPTPPLSPSRRSGLCSPSYVAVTPFSLRGDNDG |  | Kd [3]: 10 to 100 µM |

From paper PMC4807222 (Structure (London, England : 1993), 2015)
